Measurements taken from the Human Domainome abundance scans (Beltran et al. 2025).
± gives the uncertainty stated by the source.

B1: Zinc finger MYM-type protein 6, residues 427 to 504; numbered along this chain, O95789 (parent)
chain: KLKCQHCNHLFATKPELLFYKGKMFLFCGKNCSDEYKKKNKVVAMCDYCKLQKIIKETVRFSGVDKPFCSEVCKFLSA

Variants of: B1
Experiment: abundance fitness (aPCA) (normalised: wild type 0, dead -1); higher = more abundant; growth selection in yeast, the domain comes from the species named
Details: Homo sapiens

Abundance fitness, by site and new letter:
M45: S -0.073 ± 0.094 | Y 0.35 ± 0.14 | L -0.671 ± 0.18 | H -0.345 ± 0.36 | K -0.237 ± 0.18 | W -0.842 ± 0.25 | E -0.051 ± 0.13 | V -0.145 ± 0.096 | A 0.039 ± 0.089 | C -0.407 ± 0.26 | R -0.062 ± 0.073 | P -0.328 ± 0.16 | G -0.502 ± 0.085
F27: S -0.459 ± 0.039 | V -0.161 ± 0.036 | L -0.073 ± 0.037 | W -0.372 ± 0.049 | Q -0.527 ± 0.054 | K -0.727 ± 0.17 | M -0.066 ± 0.043 | H -0.405 ± 0.069 | N -0.512 ± 0.19 | D -0.553 ± 0.062 | R -0.805 ± 0.04 | I -0.365 ± 0.15 | T -0.161 ± 0.04 | C -0.025 ± 0.068 | G -0.545 ± 0.037 | E -0.508 ± 0.051
K38: L -0.088 ± 0.043 | A 0.023 ± 0.029 | D -0.114 ± 0.068 | E -0.014 ± 0.041 | W -0.136 ± 0.042 | S -0.027 ± 0.038 | G -0.026 ± 0.027 | P -0.163 ± 0.042 | T -0.014 ± 0.043 | M -0.063 ± 0.057 | Q -0.053 ± 0.042 | V -0.018 ± 0.032
K37: G -0.027 ± 0.027 | D -0.057 ± 0.065 | R -0.046 ± 0.028 | T -0.099 ± 0.04 | L -0.134 ± 0.035 | P -0.114 ± 0.036 | A 0.004 ± 0.028 | W -0.099 ± 0.033 | N 0.097 ± 0.24 | M -0.214 ± 0.15 | C -0.074 ± 0.084 | Q 0.051 ± 0.084 | S -0.068 ± 0.051 | V -0.029 ± 0.03
K21: D -0.004 ± 0.041 | S 0.012 ± 0.044 | G 0.019 ± 0.029 | N -0.03 ± 0.033 | M -0.031 ± 0.041 | R -0.025 ± 0.029 | V -0.155 ± 0.037 | W -0.133 ± 0.038 | Y -0.099 ± 0.042 | E 0.008 ± 0.036 | F -0.03 ± 0.057 | Q -0.03 ± 0.036 | H -0.018 ± 0.049 | L -0.007 ± 0.032
D34: E -0.033 ± 0.036 | Q -0.034 ± 0.048 | P -0.691 ± 0.084 | N -0.527 ± 0.28 | R -0.068 ± 0.032 | L -0.14 ± 0.038 | M -0.091 ± 0.055 | S -0.056 ± 0.041 | A -0.037 ± 0.029 | G -0.078 ± 0.029 | T -0.133 ± 0.079 | V -0.017 ± 0.032 | W -0.156 ± 0.035
F25: L 0.043 ± 0.03 | P -0.17 ± 0.036 | H -0.109 ± 0.073 | S -0.036 ± 0.038 | M 0.048 ± 0.035 | E -0.049 ± 0.035 | G -0.028 ± 0.032 | D -0.031 ± 0.046 | K -0.067 ± 0.041 | I -0.126 ± 0.43 | A 0.033 ± 0.03 | C -0.004 ± 0.051 | W -0.027 ± 0.035 | V -0.009 ± 0.039
N40: S 0.049 ± 0.053 | L -0.191 ± 0.077 | E -0.071 ± 0.06 | Y -0.24 ± 0.095 | R -0.045 ± 0.06 | T -0.014 ± 0.18 | V -0.03 ± 0.051 | K -0.105 ± 0.059 | G -0.086 ± 0.04 | D 0.019 ± 0.06 | P -0.172 ± 0.04 | H -0.104 ± 0.057 | C -0.135 ± 0.052 | A -0.02 ± 0.064
V43: R -0.224 ± 0.13 | G -0.224 ± 0.094 | H -0.763 ± 0.22 | A -0.423 ± 0.19 | L -0.7 ± 0.33 | D -0.271 ± 0.37 | W -0.416 ± 0.27 | E -0.064 ± 0.33 | N 0.239 ± 0.17 | K 0.542 ± 0.26 | M 0.55 ± 0.12
S33: D -0.217 ± 0.049 | R -0.061 ± 0.03 | F -0.289 ± 0.12 | Q 0.017 ± 0.053 | E -0.025 ± 0.039 | L -0.089 ± 0.05 | W -0.114 ± 0.043 | A -0.032 ± 0.031 | V -0.054 ± 0.03 | H -0.192 ± 0.081 | G -0.141 ± 0.027 | P -0.343 ± 0.045 | T -0.127 ± 0.056 | M -0.042 ± 0.037 | Y -0.14 ± 0.4 | C -0.077 ± 0.05
E35: V -0.07 ± 0.035 | G -0.007 ± 0.028 | C -0.402 ± 0.46 | P -0.331 ± 0.051 | Q -0.082 ± 0.06 | R -0.021 ± 0.03 | T -0.127 ± 0.092 | A -0.024 ± 0.029 | M -0.054 ± 0.033 | D -0.047 ± 0.064 | L -0.096 ± 0.042 | W -0.11 ± 0.038 | Y -0.108 ± 0.098
A44: Q 0.054 ± 0.21 | E -0.112 ± 0.16 | P -0.604 ± 0.28 | V -0.319 ± 0.19 | Y -1.28 ± 0.26 | T -0.629 ± 0.28 | M 0.39 ± 0.28 | G -0.132 ± 0.076 | W -0.558 ± 0.28 | K 0.117 ± 0.14 | R -0.495 ± 0.1 | S -0.282 ± 0.12
N31: E -0.058 ± 0.039 | P -0.018 ± 0.041 | R 0.012 ± 0.029 | F -0.229 ± 0.07 | W -0.054 ± 0.037
